Laboratory results published in doi:10.1101/2023.06.23.546279 (bioRxiv, 2023).

Experiments:
Tho2 = Tho2 (S. cerevisiae, UniProt P53552 1-1597); experiment: affinity purification with mass spectrometry
Mft1 = target: T1, Mft1 (S. cerevisiae, UniProt P33441 1-392); experiment: cross-linking
T1 sequence: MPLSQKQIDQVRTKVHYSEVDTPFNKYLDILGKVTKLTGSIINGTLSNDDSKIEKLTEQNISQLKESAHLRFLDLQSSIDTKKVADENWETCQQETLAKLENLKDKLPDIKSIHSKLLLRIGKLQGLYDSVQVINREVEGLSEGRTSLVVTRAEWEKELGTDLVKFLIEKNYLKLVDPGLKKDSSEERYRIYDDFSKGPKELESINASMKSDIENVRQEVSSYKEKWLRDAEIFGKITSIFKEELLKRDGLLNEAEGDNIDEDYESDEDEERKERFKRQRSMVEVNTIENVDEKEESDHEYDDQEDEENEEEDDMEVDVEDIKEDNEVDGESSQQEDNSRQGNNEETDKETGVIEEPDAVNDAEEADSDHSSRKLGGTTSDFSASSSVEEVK

Tho2, sequence (P53552 whole entry): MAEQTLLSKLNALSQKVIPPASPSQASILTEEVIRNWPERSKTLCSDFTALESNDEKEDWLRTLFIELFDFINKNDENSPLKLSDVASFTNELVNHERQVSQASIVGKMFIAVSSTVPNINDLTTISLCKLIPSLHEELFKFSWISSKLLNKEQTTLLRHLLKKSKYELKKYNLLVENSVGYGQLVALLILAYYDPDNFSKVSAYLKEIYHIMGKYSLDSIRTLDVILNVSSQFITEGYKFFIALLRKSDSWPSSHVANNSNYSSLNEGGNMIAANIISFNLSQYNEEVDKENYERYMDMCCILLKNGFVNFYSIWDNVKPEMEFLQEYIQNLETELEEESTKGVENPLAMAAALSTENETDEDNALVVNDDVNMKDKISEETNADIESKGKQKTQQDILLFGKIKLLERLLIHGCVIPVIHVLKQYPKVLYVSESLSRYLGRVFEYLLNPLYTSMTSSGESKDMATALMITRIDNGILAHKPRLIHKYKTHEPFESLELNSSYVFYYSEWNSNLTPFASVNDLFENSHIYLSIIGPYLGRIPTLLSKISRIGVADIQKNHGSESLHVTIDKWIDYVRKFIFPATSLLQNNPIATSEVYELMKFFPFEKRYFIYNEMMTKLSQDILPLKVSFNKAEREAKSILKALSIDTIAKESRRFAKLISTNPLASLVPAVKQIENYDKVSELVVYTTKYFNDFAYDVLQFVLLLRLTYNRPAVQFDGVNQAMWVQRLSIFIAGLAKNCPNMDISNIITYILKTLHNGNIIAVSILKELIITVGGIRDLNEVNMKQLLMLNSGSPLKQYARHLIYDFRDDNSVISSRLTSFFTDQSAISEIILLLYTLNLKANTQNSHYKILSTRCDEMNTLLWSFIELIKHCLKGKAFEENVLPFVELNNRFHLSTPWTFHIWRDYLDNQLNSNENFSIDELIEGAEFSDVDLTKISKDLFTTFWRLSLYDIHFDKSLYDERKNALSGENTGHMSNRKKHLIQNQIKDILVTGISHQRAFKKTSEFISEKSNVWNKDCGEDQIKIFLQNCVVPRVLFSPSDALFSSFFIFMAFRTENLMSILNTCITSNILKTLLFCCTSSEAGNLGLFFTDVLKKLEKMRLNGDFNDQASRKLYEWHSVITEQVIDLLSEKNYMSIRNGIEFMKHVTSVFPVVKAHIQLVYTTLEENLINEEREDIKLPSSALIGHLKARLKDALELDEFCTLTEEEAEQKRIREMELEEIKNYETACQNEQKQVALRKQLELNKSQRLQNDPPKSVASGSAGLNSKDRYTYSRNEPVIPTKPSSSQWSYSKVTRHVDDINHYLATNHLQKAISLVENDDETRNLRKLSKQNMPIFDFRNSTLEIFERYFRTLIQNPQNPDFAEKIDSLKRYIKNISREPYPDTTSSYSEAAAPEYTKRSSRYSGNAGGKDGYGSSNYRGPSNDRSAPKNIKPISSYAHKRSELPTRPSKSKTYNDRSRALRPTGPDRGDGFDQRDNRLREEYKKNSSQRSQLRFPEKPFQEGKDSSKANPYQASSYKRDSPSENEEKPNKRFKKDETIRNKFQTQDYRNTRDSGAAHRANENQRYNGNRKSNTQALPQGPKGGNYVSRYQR

| Binder | binding result (Tho2) | binding result (Mft1) |
| --- | --- | --- |
| Hpr1 with a C-terminal FLAG-TEV-2xProtein-A (FTpA) tag (natural protein) MSNTEELIQNSIGFLQKTFKALPVSFDSIRHEPLPSSMLHASVLNFEWEPLEKNISAIHDRDSLIDIILKRFIIDSMTNAIEDEEENNLEKGLLNSCIGLDFVYNSRFNRSNPASWGNTFFELFSTIIDLLNSPSTFLKFWPYAESRIEWFKMNTSVEPVSLGESNLISYKQPLYEKLRHWNDILAKLENNDILNTVKHYNMKYKLENFLSELLPINEESNFNRSASISALQESDNEWNRSARERESNRSSDVIFAADYNFVFYHLIICPIEFAFSDLEYKNDVDRSLSPLLDAILEIEENFYSKIKMNNRTRYSLEEALNTEYYANYDVMTPKLPVYMKHSNAMKMDRNEFWANLQNIKESDDYTLRPTIMDISLSNTTCLYKQLTQEDDDYYRKQFILQLCFTTNLIRNLISSDETRNFYKSCYLRENPLSDIDFENLDEVNKKRGLNLCSYICDNRVLKFYKIKDPDFYRVIRKLMSSDEKFTTAKIDGFKEFQNFRISKEKIPPPAFDETFKKFTFIKMGNKLINNVWKIPTGLDKIEQEVKKPEGVYEAAQAKWESKISSETSGGEAKDEIIRQWQTLRFLRSRYLFDFDKVNEKTGVDGLFEEPRKVEALDDSFKEKLLYKINQEHRKKLQDAREYKIGKERKKRALEEEASFPEREQKIKSQRINSASQTEGDELKSEQTQPKGEISEENTKIKSSEVSSQDPDSGVAGEFAPQNTTAQLENPKTEDNNAATSNISNGSSTQDMK | binds | – |
| Thp2 (natural protein) MTKEEGRTYFESLCEEEQSLQESQTHLLNILDILSVLADPRSSDDLLTESLKKLPDLHRELINSSIRLRYDKYQTREAQLLEDTKTGRDVAAGVQNPKSISEYYSTFEHLNRDTLRYINLLKRLSVDLAKQVEVSDPSVTVYEMDKWVPSEKLQGILEQYCAPDTDIRGVDAQIKNYLDQIKMARAKFGLENKYSLKERLSTLTKELNHWRKEWDDIEMLMFGDDAHSMKKMIQKIDSLKSEINAPSESYPVDKEGDIVLE | – | binds |
